What was measured:
Assay in all cases: holdup assay
Set-up in all cases: key: below the threshold = too weak to quantify, mostly under pKd 3.1 to 4
LIN7C, Q9NUP9 = target: T1, LIN7C, Q9NUP9
T1 sequence (Q9NUP9 88-185, limits assumed, looked up): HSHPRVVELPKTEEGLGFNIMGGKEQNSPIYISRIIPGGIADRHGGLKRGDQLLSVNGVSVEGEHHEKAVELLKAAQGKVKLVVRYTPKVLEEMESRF

HTRA2, O43464 = target: HTRA2, O43464
DLG3_1, Q92796 = target: T2, DLG3_1, Q92796
T2 sequence (Q92796 125-227, limits assumed, looked up): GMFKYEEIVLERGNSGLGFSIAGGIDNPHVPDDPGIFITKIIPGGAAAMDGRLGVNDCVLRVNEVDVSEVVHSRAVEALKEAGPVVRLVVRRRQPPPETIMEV

GRIP2_4, Q9C0E4 = target: GRIP2_4, Q9C0E4
Chain of GRIP2_4, Q9C0E4 (Q9C0E4 446-548): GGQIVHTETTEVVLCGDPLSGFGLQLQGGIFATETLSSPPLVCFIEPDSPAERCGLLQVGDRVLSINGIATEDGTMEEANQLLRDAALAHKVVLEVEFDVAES

NHERF4_2, Q86UT5 = target: NHERF4_2, Q86UT5
Chain of NHERF4_2, Q86UT5 (Q86UT5 220-308): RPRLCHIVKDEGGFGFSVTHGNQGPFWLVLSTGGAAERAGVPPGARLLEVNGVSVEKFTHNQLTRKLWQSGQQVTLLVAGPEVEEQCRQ

GRIP2_6, Q9C0E4 = target: GRIP2_6, Q9C0E4
Chain of GRIP2_6, Q9C0E4 (Q9C0E4 648-740): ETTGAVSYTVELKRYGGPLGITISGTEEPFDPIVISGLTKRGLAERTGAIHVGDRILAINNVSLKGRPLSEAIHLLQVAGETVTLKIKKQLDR

DLG2_3, Q15700 = target: DLG2_3, Q15700
LDB3, O75112 = target: LDB3, O75112
Chain of LDB3, O75112 (O75112 1-94): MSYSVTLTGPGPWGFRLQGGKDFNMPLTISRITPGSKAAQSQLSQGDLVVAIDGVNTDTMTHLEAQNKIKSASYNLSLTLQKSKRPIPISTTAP

GORASP1, Q9BQQ3 = target: GORASP1, Q9BQQ3
Chain of GORASP1, Q9BQQ3 (Q9BQQ3 1-208): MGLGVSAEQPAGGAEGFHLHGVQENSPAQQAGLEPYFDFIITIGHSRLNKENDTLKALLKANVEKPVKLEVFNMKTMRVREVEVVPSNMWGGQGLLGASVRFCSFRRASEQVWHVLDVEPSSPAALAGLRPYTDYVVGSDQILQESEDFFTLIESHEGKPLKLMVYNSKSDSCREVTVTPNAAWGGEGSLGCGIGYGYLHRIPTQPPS

APBA2_2, Q99767 = target: T3, APBA2_2, Q99767
T3 sequence (Q99767 654-744, limits assumed, looked up): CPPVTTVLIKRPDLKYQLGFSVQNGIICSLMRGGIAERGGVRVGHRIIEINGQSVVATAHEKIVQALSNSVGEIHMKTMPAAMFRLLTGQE

DVL3, Q92997 = target: T4, DVL3, Q92997
T4 sequence (Q92997 244-331, limits assumed, looked up): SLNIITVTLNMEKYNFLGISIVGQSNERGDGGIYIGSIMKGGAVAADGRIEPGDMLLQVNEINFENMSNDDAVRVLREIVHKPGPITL

MAGI1_2, Q96QZ7 = target: MAGI1_2, Q96QZ7
Chain of MAGI1_2, Q96QZ7 (Q96QZ7 456-580): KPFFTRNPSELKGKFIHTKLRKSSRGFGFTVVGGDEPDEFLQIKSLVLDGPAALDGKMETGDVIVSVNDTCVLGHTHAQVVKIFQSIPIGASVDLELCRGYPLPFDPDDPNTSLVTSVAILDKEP

Inadl_10, Q8NI35 = target: Inadl_10, Q8NI35
Chain of Inadl_10, Q8NI35 (Q8NI35 1673-1763): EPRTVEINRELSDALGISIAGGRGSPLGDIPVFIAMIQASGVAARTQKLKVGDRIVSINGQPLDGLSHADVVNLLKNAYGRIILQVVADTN

PARD3_3, Q8TEW0 = target: PARD3_3, Q8TEW0
Chain of PARD3_3, Q8TEW0 (Q8TEW0 582-685): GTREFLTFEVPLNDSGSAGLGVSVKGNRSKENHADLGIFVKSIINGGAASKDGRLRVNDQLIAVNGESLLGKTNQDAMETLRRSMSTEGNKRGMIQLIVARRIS

TX1BP3, O14907 = target: T5, TX1BP3, O14907
T5 sequence (O14907 10-122, limits assumed, looked up): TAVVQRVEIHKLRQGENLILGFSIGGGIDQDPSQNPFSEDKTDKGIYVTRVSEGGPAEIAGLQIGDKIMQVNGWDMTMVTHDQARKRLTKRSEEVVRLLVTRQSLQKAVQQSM

DFNB31_2, Q9P202 = target: T6, DFNB31_2, Q9P202
T6 sequence (Q9P202 274-371, limits assumed, looked up): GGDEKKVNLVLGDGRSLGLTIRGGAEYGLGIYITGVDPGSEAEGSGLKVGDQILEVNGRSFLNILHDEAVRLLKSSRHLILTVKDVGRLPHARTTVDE

NOS1, P29475 = target: NOS1, P29475
Chain of NOS1, P29475 (P29475 9-101): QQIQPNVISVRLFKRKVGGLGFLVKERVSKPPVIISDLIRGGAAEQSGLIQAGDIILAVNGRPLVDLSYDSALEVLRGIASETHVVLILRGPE

FRMPD1, Q5SYB0 = target: T7, FRMPD1, Q5SYB0
T7 sequence (Q5SYB0 52-145, limits assumed, looked up): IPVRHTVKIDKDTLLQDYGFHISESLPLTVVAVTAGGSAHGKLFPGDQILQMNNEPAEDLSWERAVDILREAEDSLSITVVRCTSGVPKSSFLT

LNX2_2, Q8N448 = target: T8, LNX2_2, Q8N448
T8 sequence (Q8N448 334-432, limits assumed, looked up): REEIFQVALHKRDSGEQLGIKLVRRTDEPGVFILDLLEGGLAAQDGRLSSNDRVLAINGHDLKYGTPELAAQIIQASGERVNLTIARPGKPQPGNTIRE

GRIP2_7, Q9C0E4 = target: GRIP2_7, Q9C0E4
Chain of GRIP2_7, Q9C0E4 (Q9C0E4 934-1023): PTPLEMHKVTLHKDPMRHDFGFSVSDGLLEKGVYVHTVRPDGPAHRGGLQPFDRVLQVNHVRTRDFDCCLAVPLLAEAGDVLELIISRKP

DLG1_1, Q12959 = target: DLG1_1, Q12959
MPDZ_10, O75970 = target: T9, MPDZ_10, O75970
T9 sequence (O75970 1624-1722, limits assumed, looked up): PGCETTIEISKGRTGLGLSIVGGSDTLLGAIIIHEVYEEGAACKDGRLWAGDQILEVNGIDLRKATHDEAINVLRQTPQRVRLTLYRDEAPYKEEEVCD

SCRIB_3, Q14160 = target: SCRIB_3, Q14160
Chain of SCRIB_3, Q14160 (Q14160 999-1103): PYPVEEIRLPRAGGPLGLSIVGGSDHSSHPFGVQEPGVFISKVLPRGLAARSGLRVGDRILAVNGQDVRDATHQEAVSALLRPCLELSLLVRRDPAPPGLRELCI

MPP2, Q14168 = target: T10, MPP2, Q14168
T10 sequence (Q14168 180-250, limits assumed, looked up): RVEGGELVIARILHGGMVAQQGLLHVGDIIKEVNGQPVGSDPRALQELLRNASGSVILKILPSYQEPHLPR

SIPA1L2, Q9P2F8 = target: T11, SIPA1L2, Q9P2F8
T11 sequence (Q9P2F8 945-1036, limits assumed, looked up): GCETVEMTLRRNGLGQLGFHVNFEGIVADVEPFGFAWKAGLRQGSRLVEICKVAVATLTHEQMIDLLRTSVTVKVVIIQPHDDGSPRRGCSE

GRIP2_5, Q9C0E4 = target: GRIP2_5, Q9C0E4
Chain of GRIP2_5, Q9C0E4 (Q9C0E4 544-642): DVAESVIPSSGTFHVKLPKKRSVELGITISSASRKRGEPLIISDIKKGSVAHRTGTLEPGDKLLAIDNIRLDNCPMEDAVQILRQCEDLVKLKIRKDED

[1] = plain residues with an end cap or a label only (N-terminal biotin on a linker: ttds)
[2] = plain residues with an end cap or a label only (N-terminal biotin on a linker: ahx)

Chain of HTRA2, O43464 (O43464 355-458): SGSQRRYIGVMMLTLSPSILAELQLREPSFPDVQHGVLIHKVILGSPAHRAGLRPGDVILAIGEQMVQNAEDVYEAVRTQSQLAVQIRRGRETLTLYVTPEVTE

B1: HPV59-E6, Q81964 (peptide)
chain: QRQARSETLV
- pKd (LIN7C, Q9NUP9; [1]): 3.87
- pKd (HTRA2, O43464; [1]): below the threshold
- pKd (DLG3_1, Q92796; [1]): 4.58
- pKd (GRIP2_4, Q9C0E4; [1]): below the threshold
- pKd (NHERF4_2, Q86UT5; [1]): below the threshold
- pKd (GRIP2_6, Q9C0E4; [1]): below the threshold
- pKd (DLG2_3, Q15700; [1]): 4.84
- pKd (LDB3, O75112; [1]): below the threshold
- pKd (GORASP1, Q9BQQ3; [1]): below the threshold
- pKd (APBA2_2, Q99767; [1]): below the threshold
- pKd (DVL3, Q92997; [1]): below the threshold
- pKd (MAGI1_2, Q96QZ7; [1]): 6.04
- pKd (Inadl_10, Q8NI35; [1]): below the threshold
- pKd (PARD3_3, Q8TEW0; [1]): below the threshold
- pKd (TX1BP3, O14907; [1]): 4.05
- pKd (DFNB31_2, Q9P202; [1]): below the threshold
- pKd (NOS1, P29475; [1]): 4.26
- pKd (FRMPD1, Q5SYB0; [1]): below the threshold
- pKd (LNX2_2, Q8N448; [1]): 5.04
- pKd (GRIP2_7, Q9C0E4; [1]): below the threshold
- pKd (DLG1_1, Q12959; [1]): 5.05
- pKd (MPDZ_10, O75970; [1]): below the threshold
- pKd (SCRIB_3, Q14160; [1]): 3.86
- pKd (MPP2, Q14168; [1]): below the threshold
- pKd (SIPA1L2, Q9P2F8; [1]): below the threshold
- pKd (GRIP2_5, Q9C0E4; [1]): below the threshold

B2: KCTD3, Q9Y597 (peptide)
chain: SDSSGQEYSL
- pKd (LIN7C, Q9NUP9; [2]): below the threshold
- pKd (HTRA2, O43464; [2]): below the threshold
- pKd (DLG3_1, Q92796; [2]): below the threshold
- pKd (GRIP2_4, Q9C0E4; [2]): below the threshold
- pKd (NHERF4_2, Q86UT5; [2]): below the threshold
- pKd (GRIP2_6, Q9C0E4; [2]): 3.6
- pKd (DLG2_3, Q15700; [2]): below the threshold
- pKd (LDB3, O75112; [2]): below the threshold
- pKd (GORASP1, Q9BQQ3; [2]): below the threshold
- pKd (APBA2_2, Q99767; [2]): below the threshold
- pKd (DVL3, Q92997; [2]): below the threshold
- pKd (MAGI1_2, Q96QZ7; [2]): below the threshold
- pKd (Inadl_10, Q8NI35; [2]): below the threshold
- pKd (PARD3_3, Q8TEW0; [2]): 4.58
- pKd (TX1BP3, O14907; [2]): below the threshold
- pKd (DFNB31_2, Q9P202; [2]): below the threshold
- pKd (NOS1, P29475; [2]): 3.61
- pKd (FRMPD1, Q5SYB0; [2]): below the threshold
- pKd (LNX2_2, Q8N448; [2]): below the threshold
- pKd (GRIP2_7, Q9C0E4; [2]): below the threshold
- pKd (DLG1_1, Q12959; [2]): below the threshold
- pKd (MPDZ_10, O75970; [2]): 3.56
- pKd (SCRIB_3, Q14160; [2]): below the threshold
- pKd (MPP2, Q14168; [2]): below the threshold
- pKd (SIPA1L2, Q9P2F8; [2]): below the threshold
- pKd (GRIP2_5, Q9C0E4; [2]): below the threshold

B3: ARHGEF7, Q14155;Q14155-1 (peptide)
chain: NDPAWDETNL
- pKd (LIN7C, Q9NUP9; [1]): below the threshold
- pKd (HTRA2, O43464; [1]): below the threshold
- pKd (DLG3_1, Q92796; [1]): below the threshold
- pKd (GRIP2_4, Q9C0E4; [1]): below the threshold
- pKd (NHERF4_2, Q86UT5; [1]): below the threshold
- pKd (GRIP2_6, Q9C0E4; [1]): below the threshold
- pKd (DLG2_3, Q15700; [1]): below the threshold
- pKd (LDB3, O75112; [1]): below the threshold
- pKd (GORASP1, Q9BQQ3; [1]): below the threshold
- pKd (APBA2_2, Q99767; [1]): below the threshold
- pKd (DVL3, Q92997; [1]): below the threshold
- pKd (MAGI1_2, Q96QZ7; [1]): below the threshold
- pKd (Inadl_10, Q8NI35; [1]): below the threshold
- pKd (PARD3_3, Q8TEW0; [1]): 4.16
- pKd (TX1BP3, O14907; [1]): 5.76
- pKd (DFNB31_2, Q9P202; [1]): below the threshold
- pKd (NOS1, P29475; [1]): below the threshold
- pKd (FRMPD1, Q5SYB0; [1]): below the threshold
- pKd (LNX2_2, Q8N448; [1]): below the threshold
- pKd (GRIP2_7, Q9C0E4; [1]): below the threshold
- pKd (DLG1_1, Q12959; [1]): below the threshold
- pKd (MPDZ_10, O75970; [1]): below the threshold
- pKd (SCRIB_3, Q14160; [1]): 5.08
- pKd (MPP2, Q14168; [1]): below the threshold
- pKd (SIPA1L2, Q9P2F8; [1]): below the threshold
- pKd (GRIP2_5, Q9C0E4; [1]): below the threshold

B4: SHROOM4, Q9ULL8 (peptide)
chain: ESLLLGPSNF
- pKd (LIN7C, Q9NUP9; [2]): below the threshold
- pKd (HTRA2, O43464; [2]): below the threshold
- pKd (DLG3_1, Q92796; [2]): below the threshold
- pKd (GRIP2_4, Q9C0E4; [2]): below the threshold
- pKd (NHERF4_2, Q86UT5; [2]): below the threshold
- pKd (GRIP2_6, Q9C0E4; [2]): below the threshold
- pKd (DLG2_3, Q15700; [2]): below the threshold
- pKd (LDB3, O75112; [2]): below the threshold
- pKd (GORASP1, Q9BQQ3; [2]): below the threshold
- pKd (APBA2_2, Q99767; [2]): below the threshold
- pKd (DVL3, Q92997; [2]): below the threshold
- pKd (MAGI1_2, Q96QZ7; [2]): below the threshold
- pKd (Inadl_10, Q8NI35; [2]): below the threshold
- pKd (PARD3_3, Q8TEW0; [2]): below the threshold
- pKd (TX1BP3, O14907; [2]): below the threshold
- pKd (DFNB31_2, Q9P202; [2]): below the threshold
- pKd (NOS1, P29475; [2]): below the threshold
- pKd (FRMPD1, Q5SYB0; [2]): below the threshold
- pKd (LNX2_2, Q8N448; [2]): below the threshold
- pKd (GRIP2_7, Q9C0E4; [2]): below the threshold
- pKd (DLG1_1, Q12959; [2]): below the threshold
- pKd (MPDZ_10, O75970; [2]): below the threshold
- pKd (SCRIB_3, Q14160; [2]): below the threshold
- pKd (MPP2, Q14168; [2]): below the threshold
- pKd (SIPA1L2, Q9P2F8; [2]): below the threshold
- pKd (GRIP2_5, Q9C0E4; [2]): below the threshold

B5: TMIGD1, Q6UXZ0 (peptide)
chain: DKDPHSETAL
- pKd (LIN7C, Q9NUP9; [1]): below the threshold
- pKd (HTRA2, O43464; [1]): below the threshold
- pKd (DLG3_1, Q92796; [1]): below the threshold
- pKd (GRIP2_4, Q9C0E4; [1]): below the threshold
- pKd (NHERF4_2, Q86UT5; [1]): below the threshold
- pKd (GRIP2_6, Q9C0E4; [1]): below the threshold
- pKd (DLG2_3, Q15700; [1]): below the threshold
- pKd (LDB3, O75112; [1]): below the threshold
- pKd (GORASP1, Q9BQQ3; [1]): below the threshold
- pKd (APBA2_2, Q99767; [1]): below the threshold
- pKd (DVL3, Q92997; [1]): below the threshold
- pKd (MAGI1_2, Q96QZ7; [1]): below the threshold
- pKd (Inadl_10, Q8NI35; [1]): below the threshold
- pKd (PARD3_3, Q8TEW0; [1]): 3.74
- pKd (TX1BP3, O14907; [1]): 4.03
- pKd (DFNB31_2, Q9P202; [1]): below the threshold
- pKd (NOS1, P29475; [1]): 3.86
- pKd (FRMPD1, Q5SYB0; [1]): below the threshold
- pKd (LNX2_2, Q8N448; [1]): below the threshold
- pKd (GRIP2_7, Q9C0E4; [1]): below the threshold
- pKd (DLG1_1, Q12959; [1]): 3.77
- pKd (MPDZ_10, O75970; [1]): below the threshold
- pKd (SCRIB_3, Q14160; [1]): 5.01
- pKd (MPP2, Q14168; [1]): below the threshold
- pKd (SIPA1L2, Q9P2F8; [1]): below the threshold
- pKd (GRIP2_5, Q9C0E4; [1]): below the threshold

— publication PMC9482650, “Quantitative fragmentomics allow affinity mapping of interactomes” (Nature Communications, 2022)
